US20210246194A1
Positions count from the first letter of the chain named.

B1: 7B2 IgG (antibody, V domains shown)
VH: QVQLVQSGGGVFKPGGSLRLSCEASGFTFTEYYMTWVRQAPGKGLEWLAYISKNGEYSKYSPSSNGRFTISRDNAKNSVFLQLDRLSADDTAVYYCARADGLTYFSELLQYIFDLWGQGARVTVSS
VL: DIVMTQSPDSLAVSPGERATIHCKSSQTLLYSSNNRHSIAWYQQRPGQPPKLLLYWASMRLSGVPDRFSGSGSGTDFTLTINNLQAEDVAIYYCHQYSSHPPTFGHGTRVEIK
B2: 7B2GL IgG (antibody, V domains shown)
VH: QVQLVESGGGLVKPGGSLRLSCAASGFTFSEYYMTWIRQAPGKGLEWVSYISKNGEYSKYSPSSNGRFTISRDNAKNSLYLQMNSLRAEDTAVYYCARADGLTYFSELLQYIFDLWGQGTLVTVSS
VL: B1 VL with P15L, H22N, R45K, L54I, N82S, N83S, I91V, H106Q, R109K

Target: HIV-1 JRFL gp140 Recombinant protein (HIV-1 JRFL)
Test: Attana Cell A200 QCM; IgG captured on anti-human IgG Fc; gp140 at 25, 50 and 100 nM; 1:1 fit

Binder	Kd [nM]
B1	2.9
B2	2.9
